Laboratory results from publication PMC12197075, “Identification of the Glyceraldehyde-3-Phosphate Dehydrogenase (GeGAPDH) Gene Family in Gastrodia elata Revealing Its Response Characteristics to Low-Temperature and Pathogen Stress” (Plants, 2025).

Substrate: O=C[C@H](O)COP(=O)(O)O
Assay: purified protein
Settings: phosphorylation direction, 0.6 mM NAD+, 50 mM triethanolamine, 50 mM sodium phosphate (printed 'bisphosphate'), 0.2 mM EDTA, 25 °C, pH not stated, G3P 0.25-5 mM

B1: GeGAPDH1 (Gastrodia elata) (protein)
chain: MASTAFVGSVTPLSEASFPFASSTRAPEPFRVFCWRSRSSEGSSVLCASTSCSKFPLAAISTQKSNRRNFQHTKATATETPPVVSRSSSDGKTKVGINGFGRIGRLVLRIAASRDDIEVVAVNDPFVDAKYMAYMFKYDSTHGTFKGTIKVVDESTIEIDGKRIAVTSKRDPSEITWSDFGAEYVVESSGVFTTMDKASAHLKGGAKKVVISAPSADAPMFVVGVNEQMYQPHMNIVSNASCTTNCLALLAKVVHEEFGIVEGLMTTVHATTATQKTVDGPSMKDWRGGRGASQNIIPSSTGAAKAVGKVLPELNGKLTGMAFRVPTTNVSVVDLTCRLANDASYEDVKAAVRAASEGCLKGILGYTDEDVVSNDFIGDSRSSIFDAKAGIGLGTNFMKLVSWYDNEWGYSNRVLDLIQHVARVCAHK
Km: 312 µM
